The target in data set [1] is Antithrombin III (plasma purified human AT-III) in complex with unfractionated heparin. Nature of the data set: ratio of K0.5 of variant to K0.5 of Catalyst Biosciences WT FIXa, AT-III/UFH inhibition assay.
For data set [2], the target named is Factor X (FX), P00742.
Data set [3] concerns the target Factor X, P00742.
In data set [4] the target is plasma purified human AT-III (antithrombin III), in complex with low molecular weight heparin.

Chain of Factor X (FX), P00742 (P00742 whole entry, looked up): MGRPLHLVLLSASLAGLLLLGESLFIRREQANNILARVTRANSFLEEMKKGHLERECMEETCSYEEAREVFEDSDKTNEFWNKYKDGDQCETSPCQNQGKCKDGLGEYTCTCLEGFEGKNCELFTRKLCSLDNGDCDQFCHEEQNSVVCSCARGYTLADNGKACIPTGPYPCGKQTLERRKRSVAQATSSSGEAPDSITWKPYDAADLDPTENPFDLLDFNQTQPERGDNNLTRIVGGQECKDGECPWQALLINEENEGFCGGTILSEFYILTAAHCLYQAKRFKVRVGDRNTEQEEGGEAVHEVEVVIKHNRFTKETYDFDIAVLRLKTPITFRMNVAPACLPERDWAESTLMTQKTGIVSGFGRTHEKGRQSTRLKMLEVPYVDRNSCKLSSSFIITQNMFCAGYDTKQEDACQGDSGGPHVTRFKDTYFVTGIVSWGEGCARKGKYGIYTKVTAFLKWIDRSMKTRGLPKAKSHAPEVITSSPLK
Chain of Factor X, P00742 (P00742 whole entry, looked up): as above

B1: FIXa variant R318Y/R338E/E410N/T412V (protein)
chain 1: not shown
chain 2: not shown
Take B1: the K0.5-mut/K0.5-wt in data set [1] was greater than 517.

B2: FIXa-K293E/R338E/R403E (protein)
chain 1: not shown
chain 2: not shown
As usually defined, the KM is the concentration of substrate that gives half-maximal velocity. Consider B2, for which the KM in data set [2] was determined as 50 nM. In addition, in data set [3], the KM of FX activation by FIXa in the Xase complex (FVIIIa, PC/PS vesicles, Ca2+); fluorogenic Spectrafluor FXa assay came to 50 nM. The same protein gave a K0.5-mut/K0.5-wt (against Catalyst Biosciences WT FIXa), AT-III/LMWH in data set [4] of 14.2 fold.

The record behind these values is US11491212.
